Source: patent US20210301005A1

B1: Fc-LAP2 (Fc fusion, not shown: a dimerising Fc or GST)
chain: SLSTCSTLDMDQFMRKRIEAIRGQILSKLKLTSPPEDYPEPEEVPPEVISIYNSTRDLLQEKASRRAAACERERSDEEYYAKEVYKIDMPPFFPSENAIPPTFYRPYFRIVRFDVSAMEKNASNLVKAEFRVFRLQNPKARVPEQRIELYQILKSKDLTSPTQRYIDSKVVKTRAEGEWLSFDVTDAVHEWLHHKDRNLGFKISLHCPCCTFVPSNNYIIPNKSEELEARFAGIDGTSTYTSGDQKTIKSTRKKNSGKTPHLLLMLLPSYRLESQQTNRRKKR
B2: Fc-LAP3 (Fc fusion, not shown: a dimerising Fc or GST)
chain: LSTCTTLDFGHIKKKRVEAIRGQILSKLRLTSPPEPTVMTHVPYQVLALYNSTRELLEEMHGEREEGCTQENTESEYYAKEIHKFDMIQGLAEHNELAVCPKGITSKVFRFNVSSVEKNRTNLFRAEFRVLRVPNPSSKRNEQRIELFQILRPDEHIAKQRYIGGKNLPTRGTAEWLSFDVTDTVREWLLRRESNLGLEISIHCPCHTFQPNGDILENIHEVMEIKFKGVDNEDDHGRGDLGRLKKQKDHHNPHLILMMIPPHRLDNPGQGGQRKKR

How the values were obtained:
[1] = target: human TGFβ1, mature receptor-binding domain (human) (UniProt P01137)
[2] = target: human TGFβ2, mature receptor-binding domain (human)
[3] = target: human TGFβ3, mature dimeric form (human) (UniProt P10600)
[4] = target: human TGFβ3, mature dimeric form (human) (UniProt P10600); remark: listed apart in the source

Sequence of human TGFβ3, mature dimeric form (human) (P10600 301-412): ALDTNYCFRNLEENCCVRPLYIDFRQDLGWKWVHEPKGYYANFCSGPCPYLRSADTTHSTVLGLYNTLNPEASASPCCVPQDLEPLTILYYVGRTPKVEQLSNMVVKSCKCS
Sequence of human TGFβ2, mature receptor-binding domain (human) (P09858 303-414 limits assumed): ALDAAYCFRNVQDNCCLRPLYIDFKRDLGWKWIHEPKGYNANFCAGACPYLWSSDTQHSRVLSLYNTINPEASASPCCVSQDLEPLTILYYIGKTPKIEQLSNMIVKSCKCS
Sequence of human TGFβ1, mature receptor-binding domain (human) (P01137 279-390 limits assumed): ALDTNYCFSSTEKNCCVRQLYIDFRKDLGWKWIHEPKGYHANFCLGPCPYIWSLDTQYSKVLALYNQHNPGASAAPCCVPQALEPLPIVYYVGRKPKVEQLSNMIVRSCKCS

Binder | IC50 [1] [µM] | IC50 [2] [µM] | IC50 [3] [nM] | IC50 (read off the curve) [4] [nM]
B1 | 10.1 | 0.548 | 525 | 0.6
B2 |  | 12.4 | 2920 | 
